Source: patent publication US20190218308A1 (INNATE PHARMA, published 2019)
Where a chain is given by its changes, count along the chain named.

How the values were obtained:
[1] = molecular target: T1, cynomolgus (macaca fascicularis) CD39 on CHO cells (cynomolgus (macaca fascicularis), UniProt A0A7N9DGH8 1-510); assay: flow cytometry titration on CHO cells expressing cynomolgus CD39 (panel CHO-cyCD39)
T1 construct: whole, on cells; also called CHO-cyCD39; cynomolgus CD39
T1 sequence: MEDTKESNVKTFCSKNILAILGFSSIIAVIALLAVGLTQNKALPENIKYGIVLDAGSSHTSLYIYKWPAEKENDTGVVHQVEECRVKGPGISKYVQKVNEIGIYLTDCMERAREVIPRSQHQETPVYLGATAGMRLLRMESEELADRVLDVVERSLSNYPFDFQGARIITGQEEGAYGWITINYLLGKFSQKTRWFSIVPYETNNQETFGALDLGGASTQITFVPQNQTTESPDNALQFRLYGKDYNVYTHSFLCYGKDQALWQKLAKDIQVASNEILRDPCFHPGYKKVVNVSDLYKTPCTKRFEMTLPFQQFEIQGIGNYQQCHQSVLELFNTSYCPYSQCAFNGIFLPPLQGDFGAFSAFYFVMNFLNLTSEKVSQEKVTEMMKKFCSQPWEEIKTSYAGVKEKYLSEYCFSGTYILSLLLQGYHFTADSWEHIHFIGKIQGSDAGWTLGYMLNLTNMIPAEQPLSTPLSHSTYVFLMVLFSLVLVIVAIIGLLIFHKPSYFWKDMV
Experimental: (§1) Cells were incubated with various concentration of unlabeled anti-CD39 antibody from 30 μg/ml to 5×10⁻⁴ μg/ml, for 30 minutes at 4° C. After washes, cells were incubated with Goat anti-mouse H+L labeled secondary antibody for 30 min at 4° C.

[2] = molecular target: T2, CD39-M2 extracellular domain recombinant protein (soluble human CD39) (human, UniProt P49961 38-478); assay: cell-based or functional assay
T2 sequence: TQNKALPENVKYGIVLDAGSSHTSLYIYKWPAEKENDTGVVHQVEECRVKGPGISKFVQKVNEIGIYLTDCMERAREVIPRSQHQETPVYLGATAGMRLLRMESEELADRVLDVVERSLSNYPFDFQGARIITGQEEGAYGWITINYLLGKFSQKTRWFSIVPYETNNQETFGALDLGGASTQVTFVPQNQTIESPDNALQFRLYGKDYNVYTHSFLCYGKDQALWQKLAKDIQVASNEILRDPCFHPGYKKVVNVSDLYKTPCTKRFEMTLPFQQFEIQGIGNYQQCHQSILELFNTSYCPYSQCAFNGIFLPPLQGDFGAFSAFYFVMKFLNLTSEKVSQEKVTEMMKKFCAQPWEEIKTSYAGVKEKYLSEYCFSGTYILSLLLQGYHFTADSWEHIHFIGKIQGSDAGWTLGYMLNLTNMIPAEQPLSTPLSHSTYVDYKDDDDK

[3] = molecular target: T3, human CD39 (NTPDase1, ENTPD1), membrane-bound, on cells (human, UniProt P49961 1-510); assay: cell-based or functional assay
T3 sequence: T1 sequence with I47V, Y94F, I221V, T230I, V329I, N368K, S391A, V489F, I490T

[4] = molecular target: T3, human CD39 (NTPDase1, ENTPD1), …; assay: flow cytometry on Ramos lymphoma cells, second set of experiments
Experimental: as §1

[5] = molecular target: T3, human CD39 (NTPDase1, ENTPD1), …; assay: flow cytometry on Ramos lymphoma cells, first set of experiments
Experimental: as §1

EC50 (read off the curve) [1]: ~0.4 µg/mL
IC50, inhibition of the ATPase activity of soluble CD39 protein [2]: 0.003 µg/mL
IC50 (inhibition of 50% of the enzymatic activity of CD39 expressed by 50,000 Ramos cells) [3]: 0.05 µg/mL
EC50 [4]: 0.19 µg/mL
EC50 [5]: 0.16 µg/mL
B1: antibody I-394 (antibody, human IgG1, kappa, V domains shown)
VH: EVQLQQSGPELVKPGASVKMSCKASGYTFTDYNMHWVKQSHGRTLEWIGYIVPLNGGSTFNQKFKGRATLTVNTSSRTAYMELRSLTSEDSAAYYCARGGTRFAYWGQGTLVTVSA
VL: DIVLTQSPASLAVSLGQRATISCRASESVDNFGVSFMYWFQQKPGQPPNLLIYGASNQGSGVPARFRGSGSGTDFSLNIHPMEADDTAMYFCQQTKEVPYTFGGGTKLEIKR
